This is an account of results in doi:10.1101/808618 (bioRxiv, 2020).

Numbering of substitutions follows the chain as printed. In names and notes the source's numbering stands.

This data set deals with the molecule itself. The data set can be described thus: SEC.

B1: PfGMPS_E555L (enzyme, Plasmodium falciparum)
chain: MEGEEYDKILVLNFGSQYFHLIVKRLNNIKIFSETKDYGVELKDIKDMNIKGVILSGGPYSVTEAGSPHLKKEVFEYFLEKKIPIFGICYGMQEIAVQMNGEVKKSKTSEYGCTDVNILRNDNINNITYCRNFGDSSSAMDLYSNYKLMNETCCLFENIKSDITTVWMNHNDEVTKIPENFYLVSSSENCLICSIYNKEYNIYGVQYHPEVYESLDGELMFYNFAYNICKCKKQFDPIRYHELELKNIEKYKHDHYVIAAMSGGIDSTVAAAYTHKIFKERFFGIFIDNGLLRKNEAENVYTFLKSTFPDMNITKIDASENFLSNLQGVTDPEQKRKIIGKLFIEEFEKAVNNIDIDINKTFLLQGTLYPDIIESKCSKNLSDTIKTHHNVGGLPKNLKFKLFEPFKYLFKDDVKTLSRELNLPEEITNRHPFPGPGLAIRVIGEINKHKLNILREVDDIFINDLKQYGLYNQISQAFAVLLSSKSVGVRGDARSYDYVCVLRAVKTSSFMTANWYQIPYDILDKITTRILSEVKGVNRILYDVSSKPPATIEFL
Consider B1, for which the binding result was “binds”.

B2: PfGMPS K160L (enzyme, Plasmodium falciparum)
chain: B1 chain with K160L, L555E
Consider B2, for which the binding result is given as “binds”.

B3: PfGMPS_E213A (enzyme, Plasmodium falciparum)
chain: B1 chain with E213A, L555E
In the case of B3, the binding result is “binds”.

B4: PfGMPS R25L (enzyme, Plasmodium falciparum)
chain: B1 chain with R25L, L555E
In the case of B4, the binding result is on record as “binds”.

B5: PfGMPS_H388A (enzyme, Plasmodium falciparum)
chain: B1 chain with H388A, L555E
Regarding B5, the binding result is recorded as “binds”.

B6: PfGMPS_T387A (enzyme, Plasmodium falciparum)
chain: B1 chain with T387A, L555E
In the case of B6, the binding result was “binds”.

B7: PfGMPS_K386L (enzyme, Plasmodium falciparum)
chain: B1 chain with K386L, L555E
Regarding B7, the binding result was “binds”.

B8: PfGMPS K376L (enzyme, Plasmodium falciparum)
chain: B1 chain with K376L, L555E
Turning to B8, the binding result was “binds”.

B9: PfGMPS_K24L (enzyme, Plasmodium falciparum)
chain: B1 chain with K24L, L555E
B9: the binding result is “binds”.
